Test results published in US20250027068.
Residue numbers refer to the chain shown, from its start.

B1: PRT-472 (protein)
chain: MVTSVWTKGVTPPTDFIYGEDVLHAPYKAGQGWYDITKTFNGKDDLLCGAATAGNMLHWWFDQNKEQIENYLKKHPEKQKINFNGEQMFDVKEAIDTKDSQLDSKLFEYFKEKAFPYLSTKHLGVFPDHVIDMFINGYRLSLTNHGPTPVKRGSKDPRGGIFDAVFTRGDQSKLLTNRHDLKNKTLKEISDLIKQELTEGKALGISHTYANVRINHVINLWGADFDAEGNLEAIYVTDSDSNASIGMKKYFVGVNSNGKVAISAKEIEEDNIGAQVLGLFTLSTGQDIWNQTNLEHHHHHH
B2: PRT-683 (protein)
chain: MQITSVWTKGVTPLTPEQFRYNNEDVIHAPYLAHQGWYDITKAFNGKDNLLCGAATAGNMLHWWFDQNKEEIEAYLKKHPEKQKIIFNNQELFDLRKAINTKDSQTNSQLFNYFRDKAFPNLSARQLGVMPDLVLDMFINGYYLNVFKTQSTDVNRPYQDKDKRGGIFDHVFTRGDQTTLLTARHDLKNKTLNDISQIIKQELQEGKALALSHTYANVSISHVINLWGADFNAEGNLEAIYVTDSDANASIGMKKYFVGKNAHGHVAISAKKIEGENIGAQVLGLFTLSSGKEIWQKLSLEHHHHHH
B3: PRT-499 (protein)
chain: MVTSVWTKGVTPPADFRKIVDGNIAYYHAPYVANQGWYDITKTFNGKDDLLCGAATAGNMLHWWFDQNKEYIEAYLKKHPEKQKIMFGDQELLDVRKAINTKGSQKNSELFNYFRDKAFPNLSARRLGVMPDLVLDMFINGYYLNVTKTQTTDVNRTYQEKDKRGGIFDAVFTRGDQSKLLTSRHDLKNKGLKEISDLIKQELTEGKALGLSHTYANVRINHVINLWGADFDSDGNLKAIYVTDSDSNASIGMKKYFVGVNSAGKVAISAKEIKEDNIGAQVLGLFTLSTGQDIWNQTNLEHHHHHH
B4: PRT-507 (protein)
chain: MITSVWTKGVTPPTDFIKGEDVFHAPYKAGQGWYDITKAFDGGDDLLCGAATAGNMLHWWFDQNKEEIEAYLKKHPEKQKIMFGDQELLDVRKVINTKDSQTNSALFNYFKDKAFPNLSARRLGVMPDLVLDMFINGYYLNVYKTQTTDVNRTYQTKDRRGGIFDAVFTRGDQSKLLTERHDFKEKTLKEISDLIKQELTEGKALGLSHTYANVRINHVINLWGADFDSNGNLEAIYVTDSDSNASIGMKKYFVGVNSAGKVAISAKEIKEDNIGAQVLGLFTLSTGQDIWNQTNLEHHHHHH
B5: PRT-473 (protein)
chain: MVTSVWTKGVTPPTDFRKIVDGNIAYYHAPYKAGQGWYDITKTFNGKDDLLCGAATAGNMLHWWFDQNKEQIENYLKKHPEKQKINFNGEQMFDVKEAIDTKDSQLDSKLFEYFKEKAFPYLSTKHLGVFPDHVIDMFINGYRLSLTNHGPTPVKRGSKDPRGGIFDAVFTRGDQSKLLTNRHDFKEKTLKEISDLIKQELTEGKALGISHTYANVRINHVINLWGADFDAEGNLEAIYVTDSDSNASIGMKKYFVGVNSNGKVAISAKEIEEDNIGAQVLGLFTLSTGQDIWNQTNLEHHHHHH
B6: PRT-524 (protein)
chain: MITSVWTKGVTPPTDFRKIVDGNIAYYHAPYKAGQGWYDITKAFDGGDNLLCGAATAGNMLHWWFDQNKEEIEAYLKKHPEKQKIIFNNQELFDLKAVINTKDSQTNSALFNYFKDKAFPNLSARRLGVFPDLVLDMFINGYYLNVYKTQTTDVNRTYQTKDRRGGIFDAVFTRGVQSKLLTERHDLKNKTLKEISDLIKQELTEGKALGLSHTYANVRINHVINLWGADFDSNGNLEAIYVTDSDTNASIGMKKYFVGVNSAGKVAISAKEIKEDNIGAQVLGLFTLSTGQDIWNQTNLEHHHHHH
B7: PRT-673 (protein)
chain: MQITSVWTKGVTPPTPEQFRYYNEDVLHAPYKPHQGWYDITKTFNGKDNLLCGAATAGNMLHWWFDQNKTQIEAYLKKYPEKQKIIFNNQKMFDLRKAINTKDSQTNSALFSYFKDKAFPNLSARQRGVMPDLVLDMFINGYYLNVGKTQSTDVNRPYQTRDKRGGIFDHVFGRGDQTKLLTARHDLKNKTLNEISQLIKQELSEGKALALSHTYANVSISHVINLWGADFNAEGNLEAIYVTDSDSDAKIGMKKYYVGKNASGKVAISAKKIEGENIGAQVLGLYTLSTGKDIWQKLSLEHHHHHH
B8: PRT-617 (protein)
chain: MQITSVWTKGVTPLTPEQFRYNNEDVIHAPYLPHQGWYDITKAFDGGDNLLCGAATAGNMLHWWFDQNKTEIEAYLSKYPEKQKIIFNNQELFDLRAAINSKDSQTNSQLFNYFRDKAFPNLSARQLGVMPDLVLDMFINGYYLNVFKTQSTDVNRPYQDPDKRGGIFDDVFKEGDQTTLLTARHDLKNGGLNDISTIIKQELQSGRALALSHTYANVSISHVINLWGADFNAEGNLEAIYVTDSDANQSIGMKKYKVGINAHGHVAISAKKIEGENIGAQVLGLFTLSSGKEIWQKLSLEHHHHHH
B9: PRT-689 (protein)
chain: MQITSVWTKGVTPLTMDQFTNNNEDVIHAPYKPGQGWYDITKTFDGKDNLLCGAATAGNMLHWWFDQNKEEIENYLKKHPEKQKIIFNNQKLFDLRKAINTKDSQTNSALFNYFRDKAFPNLSARQLGVMPDLVLDMFINGYYLNVFKTQSTDVNREYQTKDKRGGIFDDVFGRGDQTTLLTARHDLKNGGLNDISQIIKQELSSGKALALSHTYANVSISHVINLWGADFNEEGNLEAIYVTDSDANASIGMKKYYVGKNAHGKVAISAKKIEGENIGAQVLGLFTLSSGKEIWQKLSLEHHHHHH
B10: PRT-459 (protein)
chain: MVTSVWTKGVTPPTDFIKGEDVFHAPYKAGQGWYDITKAFDGGDDLLCGAATAGNMLHWWFDQNKDQIERYLKEHPEKQKINFNGEQMFDVKEAIDTKDSQTNSELFNYFKEKAFPYLSTKHLGVFPDHVLDMFINGYRLSLTNHGPTPVKEGSKDPRGGIFDAVFTRGDQSKLLTSRHDFKEKTLKEISDLIKQELTEGKALGLSHTYANVRINHVINLWGADFDSEGNLKAIYVTDSDSNASIGMKKYFVGVNSAGKVAISAKEIKEDNIGAQVLGLFTLSTGQDIWNQTNLEHHHHHH
B11: PRT-505 (protein)
chain: MVTSVWTKGVTPPTDFIKGEDVFHAPYKAGQGWYDITKAFDGGDDLLCGAATAGNMLHWWFDQNKEYIEAYLKKHPEKQKIMFGDQELLDVRKAINTKGSQKNSELFNYFRDKAFPNLSARRLGVMPDLVLDMFINGYYLNVTKTQTTDVNRQEQEKDKRGGIFDAVFGRGDQTKLLTSRHDLKNKGLKEISDLIKQELTEGKALGLSHTYANVRINHVINLWGADFDSDGNLKAIYVTDSDSNASIGMKKYFVGVNSAGKVAISAKEIKEDNIGAQVLGLFTLSTGQKIWNKTNLEHHHHHH
B12: PRT-675 (protein)
chain: MQITSVWTKGVTPPTMDDFTINGEDVFHAPYVANQGWYDITKTFNGKDDLLCGAATAGNMLHWWFDQNKEQIERYLKKHPEKQKIIFNNQEMFDLKEAINTKDSQTDSKLFNYFRDKAFPNLSARQLGVMPDHVLDMFINGYYLNLTKTQSTDVNRPEDTKDLRGGIFDHVFTRGDQSKLLTARHDLKNKTLKEISDLIKQELTEGKALGLSHTYANVRISHVINLWGADFDAEGNLEAIYVTDSDSNASIGMKKYYVGVNSAGKVAISAKKIEGDNIGAQVLGLYTLSTGKDIWQKLSLEHHHHHH
B13: PRT-484 (protein)
chain: MVTSVWTKGVTPPTDFRKIVDGNIAYYHAPYKAGQGWYDITKAFDGGDNLLCGAATAGNMLHWWFDQNKDQIEAYLKEHPEKQKIIFNNQELFDLKAAIDTKDDQTNSELFNYFKEKAFPYLSTKHLGVFPDHVLDMFINGYRLSLTNHGPTPVKEGSKDKRGGIFDAVFTRGVQSKLLTSRHDLKNKTLKEISDLIKQELTEGKALALSHTYANVRINHVINLWGADFDSNGNLEAIYVTDSDTNASIGMKKYFVGVNSAGKVAISAKEIEDDNIGAQVLGLFTLSTGQDIWNQTNLEHHHHHH
B14: PRT-488 (protein)
chain: B13 chain with A74R, D104S, A208G, N232E, E236K, E272K, D273E

Molecular target: pooled human IgG (human IgG1,2,3 and 4)

Protein | Enzyme Activity Endpoint Assay (purified): Fab′2 | Enzyme Activity Endpoint Assay (purified): Fc | Enzyme Activity Endpoint Assay (purified): IgG | Enzyme Activity Endpoint Assay (purified): scIgG | Enzyme activity endpoint: Fab′2 | Enzyme activity endpoint: Fc | Enzyme activity endpoint: IgG | Enzyme activity endpoint: scIgG
B1 | 1130 ng/µL | 386 ng/µL | 0 ng/µL | 0 ng/µL |  |  |  | 
B2 |  |  |  |  | 1100 ng/µL | 570 ng/µL | 0 ng/µL | 0 ng/µL
B3 | 637 ng/µL | 365 ng/µL | 436 ng/µL | 45 ng/µL |  |  |  | 
B4 | 927 ng/µL | 355 ng/µL | 112 ng/µL | 0 ng/µL |  |  |  | 
B5 | 1340 ng/µL | 384 ng/µL | 59 ng/µL | 0 ng/µL |  |  |  | 
B6 | 474 ng/µL | 285 ng/µL | 676 ng/µL | 0 ng/µL |  |  |  | 
B7 |  |  |  |  | 34 ng/µL | 252 ng/µL | 601 ng/µL | 989 ng/µL
B8 |  |  |  |  | 630 ng/µL | 34 ng/µL | 798 ng/µL | 25 ng/µL
B9 | 335 ng/µL | 248 ng/µL | 376 ng/µL | 174 ng/µL |  |  |  | 
B10 | 137 ng/µL | 193 ng/µL | 373 ng/µL | 415 ng/µL |  |  |  | 
B11 | 37 ng/µL | 148 ng/µL | 609 ng/µL | 752 ng/µL |  |  |  | 
B12 |  |  |  |  | 448 ng/µL | 400 ng/µL | 229 ng/µL | 456 ng/µL
B13 | 143 ng/µL | 277 ng/µL | 173 ng/µL | 973 ng/µL |  |  |  | 
B14 | 134 ng/µL | 246 ng/µL | 216 ng/µL | 803 ng/µL |  |  |  | 
